T1: TX1BP3, O14907
T1 sequence (O14907 10-122, limits assumed, looked up): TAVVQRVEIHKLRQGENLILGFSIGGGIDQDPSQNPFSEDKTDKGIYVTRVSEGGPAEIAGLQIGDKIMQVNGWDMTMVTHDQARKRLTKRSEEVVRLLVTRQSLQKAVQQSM

T2: PCLO, Q9Y6V0
T2 sequence (Q9Y6V0 4491-4600, limits assumed, looked up): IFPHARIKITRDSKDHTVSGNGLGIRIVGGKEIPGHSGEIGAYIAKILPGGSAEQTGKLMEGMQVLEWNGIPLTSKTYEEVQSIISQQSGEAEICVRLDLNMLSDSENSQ

T3: PDZD2_2, O15018
T3 sequence (O15018 329-429, limits assumed, looked up): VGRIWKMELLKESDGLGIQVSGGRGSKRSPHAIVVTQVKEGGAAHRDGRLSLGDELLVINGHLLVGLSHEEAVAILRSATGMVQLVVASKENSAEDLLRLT

T4: LIN7B, Q9HAP6
T4 sequence (Q9HAP6 88-185, limits assumed, looked up): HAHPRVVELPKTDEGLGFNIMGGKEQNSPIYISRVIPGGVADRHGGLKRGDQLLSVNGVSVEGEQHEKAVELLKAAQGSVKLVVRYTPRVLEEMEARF

T5: HTRA3, P83110
T5 sequence (P83110 354-453, limits assumed, looked up): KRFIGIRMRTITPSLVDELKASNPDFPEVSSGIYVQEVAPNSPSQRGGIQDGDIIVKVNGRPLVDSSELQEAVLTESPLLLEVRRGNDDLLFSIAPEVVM

T6: SNTG1, Q9NSN8
T6 sequence (Q9NSN8 52-150, limits assumed, looked up): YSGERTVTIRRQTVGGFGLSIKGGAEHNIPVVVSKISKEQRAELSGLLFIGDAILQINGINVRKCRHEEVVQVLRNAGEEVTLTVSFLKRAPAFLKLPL

T7: RAPGEF6, Q8TEU7
T7 sequence (Q8TEU7 525-625, limits assumed, looked up): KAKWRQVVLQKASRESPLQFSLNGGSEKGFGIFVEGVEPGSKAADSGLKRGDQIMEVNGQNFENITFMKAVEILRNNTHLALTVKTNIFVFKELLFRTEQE

T8: DLG3_1, Q92796
T8 sequence (Q92796 125-227, limits assumed, looked up): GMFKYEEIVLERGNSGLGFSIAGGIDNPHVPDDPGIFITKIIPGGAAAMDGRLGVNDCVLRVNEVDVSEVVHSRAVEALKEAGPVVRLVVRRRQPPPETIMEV

T9: TIAM2, Q8IVF5
T9 sequence (Q8IVF5 885-986, limits assumed, looked up): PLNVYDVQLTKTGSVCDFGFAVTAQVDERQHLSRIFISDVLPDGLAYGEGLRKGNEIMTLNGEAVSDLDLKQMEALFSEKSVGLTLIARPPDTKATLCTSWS


Key:
Assay in all cases: holdup assay
Set-up in all cases: key: below the threshold = too weak to quantify, mostly under pKd 3.1 to 4
Settings in all cases: plain residues with an end cap or a label only (N-terminal biotin on a linker: ado-ado)
TX1BP3, O14907 = molecular target: T1, TX1BP3, O14907
Inadl_1, Q8NI35 = molecular target: Inadl_1, Q8NI35
PCLO, Q9Y6V0 = molecular target: T2, PCLO, Q9Y6V0
FRMPD2_1, Q68DX3 = molecular target: FRMPD2_1, Q68DX3
PDZD2_2, O15018 = molecular target: T3, PDZD2_2, O15018
LAP2, Q96RT1 = molecular target: LAP2, Q96RT1
IL16_4, Q14005 = molecular target: IL16_4, Q14005
DLG4_3, P78352 = molecular target: DLG4_3, P78352
LIN7B, Q9HAP6 = molecular target: T4, LIN7B, Q9HAP6
TJP1_3, Q07157 = molecular target: TJP1_3, Q07157
LNX1_1, Q8TBB1 = molecular target: LNX1_1, Q8TBB1
MAGI2_3, Q86UL8 = molecular target: MAGI2_3, Q86UL8
HTRA3, P83110 = molecular target: T5, HTRA3, P83110
PDLIM1, O00151 = molecular target: PDLIM1, O00151
SNTG1, Q9NSN8 = molecular target: T6, SNTG1, Q9NSN8
TJP2_1, Q9UDY2 = molecular target: TJP2_1, Q9UDY2
NHERF4_2, Q86UT5 = molecular target: NHERF4_2, Q86UT5
Inadl_6, Q8NI35 = molecular target: Inadl_6, Q8NI35
GRIP2_4, Q9C0E4 = molecular target: GRIP2_4, Q9C0E4
RAPGEF6, Q8TEU7 = molecular target: T7, RAPGEF6, Q8TEU7
DLG3_1, Q92796 = molecular target: T8, DLG3_1, Q92796
GOPC, Q9HD26 = molecular target: GOPC, Q9HD26
DLG4_2, P78352 = molecular target: DLG4_2, P78352
SCRIB_3, Q14160 = molecular target: SCRIB_3, Q14160
TIAM2, Q8IVF5 = molecular target: T9, TIAM2, Q8IVF5
FRMPD2_2, Q68DX3 = molecular target: FRMPD2_2, Q68DX3
HTRA2, O43464 = molecular target: HTRA2, O43464
Inadl_9, Q8NI35 = molecular target: Inadl_9, Q8NI35
Inadl_9, Q8NI35, sequence (Q8NI35 1530-1615): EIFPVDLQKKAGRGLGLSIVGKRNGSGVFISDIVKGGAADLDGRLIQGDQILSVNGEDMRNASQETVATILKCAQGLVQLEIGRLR

LNX1_1, Q8TBB1, sequence (Q8TBB1 261-371): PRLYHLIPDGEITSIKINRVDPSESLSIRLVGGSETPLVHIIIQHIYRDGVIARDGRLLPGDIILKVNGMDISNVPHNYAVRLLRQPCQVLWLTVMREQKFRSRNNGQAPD
LAP2, Q96RT1, sequence (Q96RT1 other isoform, or with tags, fused parts or gaps): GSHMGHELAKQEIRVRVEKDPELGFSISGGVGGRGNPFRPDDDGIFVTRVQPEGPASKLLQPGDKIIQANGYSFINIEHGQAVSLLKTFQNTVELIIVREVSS
TJP2_1, Q9UDY2, sequence (Q9UDY2 24-128): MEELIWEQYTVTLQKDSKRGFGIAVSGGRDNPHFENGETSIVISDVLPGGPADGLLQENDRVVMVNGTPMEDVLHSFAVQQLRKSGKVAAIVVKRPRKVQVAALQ
GRIP2_4, Q9C0E4, sequence (Q9C0E4 446-548): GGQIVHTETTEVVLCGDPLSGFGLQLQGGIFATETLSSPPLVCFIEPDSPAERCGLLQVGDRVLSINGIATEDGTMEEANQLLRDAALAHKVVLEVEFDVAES
DLG4_2, P78352, sequence (P78352 155-259): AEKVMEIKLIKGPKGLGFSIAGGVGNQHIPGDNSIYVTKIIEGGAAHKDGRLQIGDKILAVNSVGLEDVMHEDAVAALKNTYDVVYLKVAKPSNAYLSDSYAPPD
FRMPD2_1, Q68DX3, sequence (Q68DX3 770-861): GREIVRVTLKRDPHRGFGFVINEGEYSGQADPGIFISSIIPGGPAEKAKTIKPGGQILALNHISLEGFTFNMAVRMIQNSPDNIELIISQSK
MAGI2_3, Q86UL8, sequence (Q86UL8 600-682): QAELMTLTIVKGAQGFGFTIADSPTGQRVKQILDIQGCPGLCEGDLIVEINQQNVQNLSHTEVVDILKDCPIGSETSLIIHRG
DLG4_3, P78352, sequence (P78352 306-403): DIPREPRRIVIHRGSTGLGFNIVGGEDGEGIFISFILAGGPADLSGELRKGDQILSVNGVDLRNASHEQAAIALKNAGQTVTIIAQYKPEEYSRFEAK
SCRIB_3, Q14160, sequence (Q14160 999-1103): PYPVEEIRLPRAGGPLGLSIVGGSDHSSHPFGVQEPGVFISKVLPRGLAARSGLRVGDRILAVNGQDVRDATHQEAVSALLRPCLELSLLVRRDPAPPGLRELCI
IL16_4, Q14005, sequence (Q14005 1229-1329): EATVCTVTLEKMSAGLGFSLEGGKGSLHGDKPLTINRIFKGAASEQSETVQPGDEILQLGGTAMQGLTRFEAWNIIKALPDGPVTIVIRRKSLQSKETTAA
NHERF4_2, Q86UT5, sequence (Q86UT5 220-308): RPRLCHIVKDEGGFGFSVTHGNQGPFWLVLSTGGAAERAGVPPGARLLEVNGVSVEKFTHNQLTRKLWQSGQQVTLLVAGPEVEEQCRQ
FRMPD2_2, Q68DX3, sequence (Q68DX3 944-1038): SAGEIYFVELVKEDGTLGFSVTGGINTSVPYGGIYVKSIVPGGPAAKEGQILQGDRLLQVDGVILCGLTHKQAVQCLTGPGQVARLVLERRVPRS
Inadl_1, Q8NI35, sequence (Q8NI35 113-229): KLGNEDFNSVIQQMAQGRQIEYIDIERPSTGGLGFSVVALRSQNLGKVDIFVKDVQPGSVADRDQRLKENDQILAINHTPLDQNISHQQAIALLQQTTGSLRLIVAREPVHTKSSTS
TJP1_3, Q07157, sequence (Q07157 416-512): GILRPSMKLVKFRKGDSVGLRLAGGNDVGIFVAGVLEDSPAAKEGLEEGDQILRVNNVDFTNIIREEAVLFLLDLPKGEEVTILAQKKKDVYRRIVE
Inadl_6, Q8NI35, sequence (Q8NI35 1058-1167): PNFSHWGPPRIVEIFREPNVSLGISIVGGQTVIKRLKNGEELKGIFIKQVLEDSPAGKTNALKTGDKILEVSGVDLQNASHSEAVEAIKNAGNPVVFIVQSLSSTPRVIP
PDLIM1, O00151, sequence (O00151 1-87): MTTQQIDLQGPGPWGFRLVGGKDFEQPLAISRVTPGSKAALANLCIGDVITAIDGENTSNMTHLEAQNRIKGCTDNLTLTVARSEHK
HTRA2, O43464, sequence (O43464 355-458): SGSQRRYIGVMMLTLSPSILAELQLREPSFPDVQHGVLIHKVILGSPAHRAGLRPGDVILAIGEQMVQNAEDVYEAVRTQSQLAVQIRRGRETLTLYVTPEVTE

| Binder | pKd (TX1BP3, O14907) | pKd (Inadl_1, Q8NI35) | pKd (PCLO, Q9Y6V0) | pKd (FRMPD2_1, Q68DX3) | pKd (PDZD2_2, O15018) | pKd (LAP2, Q96RT1) | pKd (IL16_4, Q14005) | pKd (DLG4_3, P78352) | pKd (LIN7B, Q9HAP6) | pKd (TJP1_3, Q07157) | pKd (LNX1_1, Q8TBB1) | pKd (MAGI2_3, Q86UL8) | pKd (HTRA3, P83110) | pKd (PDLIM1, O00151) | pKd (SNTG1, Q9NSN8) | pKd (TJP2_1, Q9UDY2) | pKd (NHERF4_2, Q86UT5) | pKd (Inadl_6, Q8NI35) | pKd (GRIP2_4, Q9C0E4) | pKd (RAPGEF6, Q8TEU7) | further results |
| --- | --- | --- | --- | --- | --- | --- | --- | --- | --- | --- | --- | --- | --- | --- | --- | --- | --- | --- | --- | --- | --- |
| QKAPTKEFYA [SDC2, P34741] | below the threshold | below the threshold | below the threshold | 4.1 | below the threshold | below the threshold | below the threshold | below the threshold | 3.53 | below the threshold | below the threshold | below the threshold | 4.31 | below the threshold | below the threshold | below the threshold | below the threshold | below the threshold | below the threshold | 3.54 | pKd (DLG3_1, Q92796): below the threshold; pKd (GOPC, Q9HD26): below the threshold; pKd (DLG4_2, P78352): below the threshold; pKd (SCRIB_3, Q14160): below the threshold; pKd (TIAM2, Q8IVF5): 4.34; pKd (FRMPD2_2, Q68DX3): 3.61; pKd (HTRA2, O43464): below the threshold; pKd (Inadl_9, Q8NI35): below the threshold |
| EKCGKEFSEF [PRKACA, P17612] | below the threshold | below the threshold | below the threshold | below the threshold | 3.68 | below the threshold | below the threshold | below the threshold | 3.92 | below the threshold | below the threshold | below the threshold | below the threshold | below the threshold | below the threshold | below the threshold | below the threshold | below the threshold | below the threshold | below the threshold | pKd (DLG3_1, Q92796): below the threshold; pKd (GOPC, Q9HD26): below the threshold; pKd (DLG4_2, P78352): below the threshold; pKd (SCRIB_3, Q14160): below the threshold; pKd (TIAM2, Q8IVF5): 4.13; pKd (FRMPD2_2, Q68DX3): below the threshold; pKd (HTRA2, O43464): below the threshold; pKd (Inadl_9, Q8NI35): below the threshold |
| TGLWKHETTV [ADGRA3, Q8IWK6] | 5.08 | below the threshold | below the threshold | below the threshold | 4.2 | 4.32 | below the threshold | 4.94 | 4.04 | below the threshold | 3.78 | 4.02 | below the threshold | below the threshold | 4.46 | 3.65 | below the threshold | below the threshold | below the threshold | below the threshold | pKd (DLG3_1, Q92796): 4.69; pKd (GOPC, Q9HD26): 3.92; pKd (DLG4_2, P78352): 5.41; pKd (SCRIB_3, Q14160): 4.88; pKd (TIAM2, Q8IVF5): below the threshold; pKd (FRMPD2_2, Q68DX3): 3.76; pKd (HTRA2, O43464): below the threshold; pKd (Inadl_9, Q8NI35): 3.74 |
| QLSFNTDTLC [ABCA2, Q9BZC7] | 4.04 | below the threshold | below the threshold | below the threshold | below the threshold | below the threshold | below the threshold | below the threshold | 3.66 | below the threshold | below the threshold | below the threshold | 4.26 | below the threshold | below the threshold | below the threshold | below the threshold | below the threshold | below the threshold | below the threshold | pKd (DLG3_1, Q92796): 3.61; pKd (GOPC, Q9HD26): below the threshold; pKd (DLG4_2, P78352): 3.61; pKd (SCRIB_3, Q14160): below the threshold; pKd (TIAM2, Q8IVF5): 4.13; pKd (FRMPD2_2, Q68DX3): below the threshold; pKd (HTRA2, O43464): below the threshold; pKd (Inadl_9, Q8NI35): below the threshold |
